Data published in US20240226039A1, “IMMUNE CHECKPOINT INHIBITOR AND HDAC INHIBITOR COMBINATION THERAPY STRATEGY” (H. Lee Moffitt Cancer Center and Research Institute, Inc., priority 2021, published 2024).

Experiments:
[1] = test system: metastatic NSCLC (mNSCLC); experiment: Phase II randomized trial, best response / ORR; type: in vivo, human
Method: (§1) Key exclusion criteria: Untreated, progressive, or symptomatic brain metastases, Active uncontrolled autoimmune disorders, and Systemic steroid use equivalent to >10 mg prednisone. […] The primary endpoint was overall response rate (ORR). Additional endpoints included correlative analyses, DOR, PFS and OS. The trial used a Simon Mini-Max two-stage design with interim analysis planned after the first stage when 23 patients were enrolled in each arm.

CD8+ T cells = experiment: IHC of CD8+ TIL in pre- and on-treatment core biopsies; type: in vivo, human; conditions: biopsy cycle 1 days 15-21; p=0.001 Arm A, p=0.002 Arm B
Method: IHC was performed to determine presence of CD8+ T cells and CD33+ myeloid cells. Biopsies were scored using a 0-3 scale separately in the tumor stroma and tumor beds.

[2] = design: species or system human; conditions: in vivo
Method: as §1, with “Key inclusion criteria: Histologically confirmed mNSCLCm Treatment naïve, and PD-L1 expression≥1% are eligible. Key” for “Key”

Substance: pembrolizumab [Arm A]
- disease control rate, interim analysis ([1]; immunotherapy naive patients, p=0.024): 58%
- PRs, interim analysis ([1]; immunotherapy naive patients, p=0.026): 25%
- ORR in pts with low pre-treatment tumor bed TIL (score=1) ([1]; in vivo): 33.3%
- Best Response: Progressive Disease ([1]; patients n (%), first-line mNSCLC): 10 (42%)
- Disease Control Rate ([1]; patients n (%), first-line mNSCLC, p = 0.024 between arms): 14 (58%)
- Best Response: Partial Response ([1]; patients n (%), first-line mNSCLC, p = 0.026 between arms): 6 (25%)
- change from pre-treatment to on-treatment CD8+ TIL scores (CD8+ T cells): significant increase
- ALT increased Gr 1 [2]: 0
- ALT increased Gr 2 [2]: 0
- ALT increased Gr 3 [2]: 1 (4%)
- ALT increased Gr 4 [2]: 0
- ALT increased Total [2]: 1 (4%)
- AST increased Gr 1 [2]: 0
- AST increased Gr 2 [2]: 0
- AST increased Gr 3 [2]: 1 (4%)
- AST increased Gr 4 [2]: 0
- AST increased Total [2]: 1 (4%)
- Alkaline phosphatase increased Gr 1 [2]: 0
- Alkaline phosphatase increased Gr 2 [2]: 0
- Alkaline phosphatase increased Gr 3 [2]: 0
- Alkaline phosphatase increased Gr 4 [2]: 0
- Alkaline phosphatase increased Total [2]: 0
- Alopecia Gr 1 [2]: 0
- Alopecia Gr 2 [2]: 0
- Alopecia Gr 3 [2]: 0
- Alopecia Gr 4 [2]: 0
- Alopecia Total [2]: 0
- Anemia Gr 1 [2]: 0
- Anemia Gr 2 [2]: 0
- Anemia Gr 3 [2]: 0
- Anemia Gr 4 [2]: 0
- Anemia Total [2]: 0
- Anorexia Gr 1 [2]: 1 (4%)
- Anorexia Gr 2 [2]: 0
- Anorexia Gr 3 [2]: 0
- Anorexia Gr 4 [2]: 0
- Anorexia Total [2]: 1 (4%)
- Arthralgia Gr 1 [2]: 0
- Arthralgia Gr 2 [2]: 0
- Arthralgia Gr 3 [2]: 0
- Arthralgia Gr 4 [2]: 0
- Arthralgia Total [2]: 0
- Chest pain - cardiac Gr 1 [2]: 0
- Chest pain - cardiac Gr 2 [2]: 0
- Chest pain - cardiac Gr 3 [2]: 1 (4%)
- Chest pain - cardiac Gr 4 [2]: 0
- Chest pain - cardiac Total [2]: 1 (4%)
- Creatinine increased Gr 1 [2]: 0
- Creatinine increased Gr 2 [2]: 0
- Creatinine increased Gr 3 [2]: 0
- Creatinine increased Gr 4 [2]: 0
- Creatinine increased Total [2]: 0
- Diarrhea Gr 2 [2]: 1 (4%)
- Diarrhea Gr 3 [2]: 0
- Diarrhea Gr 4 [2]: 0
- Diarrhea Total [2]: 3 (13%)
- Dysgeusia Gr 1 [2]: 0
- Dysgeusia Gr 2 [2]: 0
- Dysgeusia Gr 3 [2]: 0
- Dysgeusia Gr 4 [2]: 0
- Dysgeusia Total [2]: 0
- Fatigue Gr 1 [2]: 1 (4%)
- Fatigue Gr 2 [2]: 1 (4%)
- Fatigue Gr 3 [2]: 0
- Fatigue Gr 4 [2]: 0
- Fatigue Total [2]: 2 (8%)
- Heart failure Gr 1 [2]: 0
- Heart failure Gr 2 [2]: 0
- Heart failure Gr 3 [2]: 0
- Heart failure Gr 4 [2]: 0
- Heart failure Total [2]: 0
- Hyponatremia Gr 1 [2]: 0
- Hyponatremia Gr 2 [2]: 0
- Hyponatremia Gr 3 [2]: 1 (4%)
- Hyponatremia Gr 4 [2]: 0
- Hyponatremia Total [2]: 1 (4%)
- Hypothyroidism Gr 1 [2]: 0
- Hypothyroidism Gr 2 [2]: 1 (4%)
- Hypothyroidism Gr 3 [2]: 0
- Hypothyroidism Gr 4 [2]: 0
- Hypothyroidism Total [2]: 1 (4%)
- Nausea Gr 1 [2]: 0
- Nausea Gr 2 [2]: 0
- Nausea Gr 3 [2]: 0
- Nausea Gr 4 [2]: 0
- Nausea Total [2]: 0
- Pain Gr 1 [2]: 0
- Pain Gr 2 [2]: 0
- Pain Gr 3 [2]: 0
- Pain Gr 4 [2]: 0
- Pain Total [2]: 0
- Pericardial effusion/ tamponade Gr 1 [2]: 0
- Pericardial effusion/ tamponade Gr 2 [2]: 0
- Pericardial effusion/ tamponade Gr 3 [2]: 0
- Pericardial effusion/ tamponade Gr 4 [2]: 0
- Pericardial effusion/ tamponade Total [2]: 0
- Platelet count decreased Gr 1 [2]: 0
- Platelet count decreased Gr 2 [2]: 0
- Platelet count decreased Gr 3 [2]: 0
- Platelet count decreased Gr 4 [2]: 0
- Platelet count decreased Total [2]: 0
- Pneumonitis Gr 1 [2]: 0
- Pneumonitis Gr 2 [2]: 0
- Pneumonitis Gr 3 [2]: 1 (4%)
- Pneumonitis Gr 4 [2]: 0
- Pneumonitis Total [2]: 1 (4%)
- Pruritis Gr 2 [2]: 0
- Pruritis Gr 3 [2]: 0
- Pruritis Gr 4 [2]: 0
- QT prolongation Gr 1 [2]: 0
- QT prolongation Gr 2 [2]: 0
- QT prolongation Gr 3 [2]: 0
- QT prolongation Gr 4 [2]: 0
- QT prolongation Total [2]: 0
- Rash maculo-papular Gr 1 [2]: 0
- Rash maculo-papular Gr 2 [2]: 0
- Rash maculo-papular Gr 3 [2]: 1 (4%)
- Rash maculo-papular Gr 4 [2]: 0
- Rash maculo-papular Total [2]: 1 (4%)
- Thromboembolic event Gr 1 [2]: 0
- Thromboembolic event Gr 2 [2]: 0
- Thromboembolic event Gr 3 [2]: 0
- Thromboembolic event Gr 4 [2]: 0
- Thromboembolic event Total [2]: 0
- Total AEs Gr 1 [2]: 8
- Total AEs Gr 2 [2]: 6
- Total AEs Gr 3 [2]: 6
- Total AEs Gr 4 [2]: 0
- Total AEs Total [2]: 20
- Total irAEs Gr 1 [2]: 4
- Total irAEs Gr 2 [2]: 2
- Total irAEs Gr 3 [2]: 3
- Total irAEs Gr 4 [2]: 0
- Total irAEs Total [2]: 9
- Vomiting Gr 1 [2]: 0
- Vomiting Gr 2 [2]: 0
- Vomiting Gr 3 [2]: 0
- Vomiting Gr 4 [2]: 0
- Vomiting Total [2]: 0
- irAE AST increased Gr 1 [2]: 0
- irAE AST increased Gr 2 [2]: 0
- irAE AST increased Gr 3 [2]: 0
- irAE AST increased Gr 4 [2]: 0
- irAE AST increased Total [2]: 0
- irAE Adrenal insufficiency Gr 1 [2]: 0
- irAE Adrenal insufficiency Gr 2 [2]: 1 (4%)
- irAE Adrenal insufficiency Gr 3 [2]: 0
- irAE Adrenal insufficiency Gr 4 [2]: 0
- irAE Adrenal insufficiency Total [2]: 1 (4%)
- irAE Arthralgia Gr 1 [2]: 0
- irAE Arthralgia Gr 2 [2]: 0
- irAE Arthralgia Gr 3 [2]: 0
- irAE Arthralgia Gr 4 [2]: 0
- irAE Arthralgia Total [2]: 0
- irAE Brachial plexopathy Gr 1 [2]: 0
- irAE Brachial plexopathy Gr 2 [2]: 0
- irAE Brachial plexopathy Gr 3 [2]: 0
- irAE Brachial plexopathy Gr 4 [2]: 0
- irAE Brachial plexopathy Total [2]: 0
- irAE Colitis Gr 1 [2]: 0
- irAE Colitis Gr 2 [2]: 1 (4%)
- irAE Colitis Gr 3 [2]: 0
- irAE Colitis Gr 4 [2]: 0
- irAE Colitis Total [2]: 1 (4%)
- irAE Hepatitis Gr 1 [2]: 0
- irAE Hepatitis Gr 2 [2]: 0
- irAE Hepatitis Gr 3 [2]: 1 (4%)
- irAE Hepatitis Gr 4 [2]: 0
- irAE Hepatitis Total [2]: 1 (4%)
- irAE Hypothyroidism Gr 1 [2]: 0
- irAE Hypothyroidism Gr 2 [2]: 0
- irAE Hypothyroidism Gr 3 [2]: 0
- irAE Hypothyroidism Gr 4 [2]: 0
- irAE Hypothyroidism Total [2]: 0
- irAE Pancreatic atrophy Gr 1 [2]: 0
- irAE Pancreatic atrophy Gr 2 [2]: 0
- irAE Pancreatic atrophy Gr 3 [2]: 0
- irAE Pancreatic atrophy Gr 4 [2]: 0
- irAE Pancreatic atrophy Total [2]: 0
- irAE Pericardial effusion Gr 1 [2]: 0
- irAE Pericardial effusion Gr 2 [2]: 0
- irAE Pericardial effusion Gr 3 [2]: 0
- irAE Pericardial effusion Gr 4 [2]: 0
- irAE Pericardial effusion Total [2]: 0
- irAE Pneumonitis Gr 1 [2]: 0
- irAE Pneumonitis Gr 2 [2]: 0
- irAE Pneumonitis Gr 3 [2]: 1 (4%)
- irAE Pneumonitis Gr 4 [2]: 0
- irAE Pneumonitis Total [2]: 1 (4%)
- irAE Rash/pruritis/dry skin Gr 1 [2]: 4 (17%)
- irAE Rash/pruritis/dry skin Gr 2 [2]: 0
- irAE Rash/pruritis/dry skin Gr 3 [2]: 1 (4%)
- irAE Rash/pruritis/dry skin Gr 4 [2]: 0
- irAE Rash/pruritis/dry skin Total [2]: 5 (21%)
- treatment discontinued due to toxicity, number of patients [2]: 2 patients
- treatment discontinued due to toxicity, share of patients [2]: 8%
